Experimental data from patent publication US20200061156A1 (UNIVERSITY OF QUEENSLAND, published 2020).

How the values were obtained:
[1] = molecular target: rat acid sensing ion channel subtype 1a (homomeric, expressed in Xenopus laevis oocytes) (rat) (UniProt P55926); assay: cell-based or functional assay
[2] = molecular target: rat acid sensing ion channel subtype 1a (homomeric, expressed in Xenopus laevis oocytes) (rat) (UniProt P55926); assay: inhibition of rASIC1a currents in Xenopus oocytes
[3] = molecular target: T1, rat acid sensing ion channel subtype 2a (homomeric, expressed in Xenopus laevis oocytes) (rat, UniProt Q62962 1-512); assay: cell-based or functional assay
T1 sequence: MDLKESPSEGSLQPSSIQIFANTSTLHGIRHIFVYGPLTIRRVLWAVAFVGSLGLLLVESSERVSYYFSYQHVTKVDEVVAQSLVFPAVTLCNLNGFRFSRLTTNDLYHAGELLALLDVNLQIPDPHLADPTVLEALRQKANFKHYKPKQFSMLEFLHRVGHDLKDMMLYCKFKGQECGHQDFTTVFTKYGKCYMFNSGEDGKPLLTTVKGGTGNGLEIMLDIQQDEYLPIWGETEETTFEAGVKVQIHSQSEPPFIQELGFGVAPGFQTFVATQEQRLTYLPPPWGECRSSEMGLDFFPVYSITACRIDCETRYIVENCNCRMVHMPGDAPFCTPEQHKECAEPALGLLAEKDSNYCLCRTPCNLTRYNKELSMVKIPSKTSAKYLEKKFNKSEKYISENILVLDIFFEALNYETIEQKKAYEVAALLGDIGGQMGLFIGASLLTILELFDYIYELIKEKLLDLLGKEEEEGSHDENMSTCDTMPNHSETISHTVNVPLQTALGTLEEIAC

[4] = molecular target: T2, rat acid sensing ion channel subtype 3 (homomeric, expressed in Xenopus laevis oocytes) (rat, UniProt O35240 1-533); assay: cell-based or functional assay
T2 sequence: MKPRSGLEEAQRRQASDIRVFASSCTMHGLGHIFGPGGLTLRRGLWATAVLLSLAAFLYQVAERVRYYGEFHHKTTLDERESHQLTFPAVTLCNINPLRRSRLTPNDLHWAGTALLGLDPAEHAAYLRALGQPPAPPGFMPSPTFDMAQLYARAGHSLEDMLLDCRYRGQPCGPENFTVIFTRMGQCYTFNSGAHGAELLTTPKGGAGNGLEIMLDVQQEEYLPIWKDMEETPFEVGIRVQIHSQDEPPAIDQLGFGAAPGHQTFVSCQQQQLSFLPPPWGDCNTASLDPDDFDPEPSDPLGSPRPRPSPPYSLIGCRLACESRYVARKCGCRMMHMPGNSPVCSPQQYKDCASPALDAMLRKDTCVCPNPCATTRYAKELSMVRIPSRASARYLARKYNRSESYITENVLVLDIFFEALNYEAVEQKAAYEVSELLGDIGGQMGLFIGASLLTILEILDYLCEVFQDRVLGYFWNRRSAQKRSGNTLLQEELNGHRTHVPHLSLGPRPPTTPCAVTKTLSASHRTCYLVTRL

[5] = molecular target: human acid sensing ion channel subtype 1a (homomeric, expressed in Xenopus laevis oocytes) (human), P78348; assay: cell-based or functional assay
human acid sensing ion channel subtype 1a (homomeric, expressed in Xenopus laevis oocytes) (human), P78348, sequence (P78348 whole entry): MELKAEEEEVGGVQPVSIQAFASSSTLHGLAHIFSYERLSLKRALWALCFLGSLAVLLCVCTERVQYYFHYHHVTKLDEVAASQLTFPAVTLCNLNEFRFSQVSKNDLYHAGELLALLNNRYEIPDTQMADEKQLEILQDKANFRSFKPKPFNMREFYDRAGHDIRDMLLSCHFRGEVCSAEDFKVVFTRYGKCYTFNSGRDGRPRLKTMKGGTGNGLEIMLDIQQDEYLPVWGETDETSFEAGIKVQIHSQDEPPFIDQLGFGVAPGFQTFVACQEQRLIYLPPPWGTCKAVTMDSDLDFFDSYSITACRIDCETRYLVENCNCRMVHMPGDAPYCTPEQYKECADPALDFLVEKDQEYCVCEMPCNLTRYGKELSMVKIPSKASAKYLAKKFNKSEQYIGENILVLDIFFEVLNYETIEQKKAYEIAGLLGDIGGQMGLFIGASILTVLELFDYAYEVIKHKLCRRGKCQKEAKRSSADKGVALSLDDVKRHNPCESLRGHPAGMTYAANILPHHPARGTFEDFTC

[6] = molecular target: rat acid sensing ion channel subtype 1b (homomeric, expressed in Xenopus laevis oocytes) (rat), P55926; assay: cell-based or functional assay
rat acid sensing ion channel subtype 1b (homomeric, expressed in Xenopus laevis oocytes) (rat), P55926, sequence (P55926 whole entry): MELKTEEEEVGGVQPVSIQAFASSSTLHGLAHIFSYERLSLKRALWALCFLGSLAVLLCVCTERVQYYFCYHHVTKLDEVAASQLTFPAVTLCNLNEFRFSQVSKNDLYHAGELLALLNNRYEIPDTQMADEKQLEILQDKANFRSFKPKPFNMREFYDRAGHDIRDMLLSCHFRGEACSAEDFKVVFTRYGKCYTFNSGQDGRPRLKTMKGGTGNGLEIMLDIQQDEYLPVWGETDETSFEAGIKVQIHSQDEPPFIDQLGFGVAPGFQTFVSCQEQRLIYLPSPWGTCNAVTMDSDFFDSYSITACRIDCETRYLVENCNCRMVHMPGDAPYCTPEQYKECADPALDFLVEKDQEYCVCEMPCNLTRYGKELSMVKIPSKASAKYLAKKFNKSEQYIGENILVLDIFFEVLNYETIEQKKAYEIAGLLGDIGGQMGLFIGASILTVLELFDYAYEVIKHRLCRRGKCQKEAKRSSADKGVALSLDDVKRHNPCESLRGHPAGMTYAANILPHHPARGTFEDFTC

rat acid sensing ion channel subtype 1a (homomeric, expressed in Xenopus laevis oocytes) (rat), sequence (P55926 whole entry): as above

recombinant Hi1d (peptide)
% Residual Current [1]: 0% | IC50 (inhibition of acid-evoked current, TEVC, Xenopus oocytes) [1]: 193 nM | time to full reversal of inhibition on washout (TEVC) [1]: < 60 s

recombinant Hi1a (π-hexatoxin-Hi1a) expressed in E. coli (peptide)
% Residual Current [1]: 30% | IC50 (inhibition of acid-evoked current, TEVC, Xenopus oocytes) [1]: 0.46 nM

N-terminal ICK domain of Hi1a (Hi1a-N), produced in E. coli (peptide)
IC50 (inhibition of acid-evoked current, TEVC, Xenopus oocytes) [1]: 1000 nM | fold lower potency than PcTx1 or full-length Hi1a [1]: 1000 fold

recombinant Hi1a (π-hexatoxin-Hi1a) expressed in E. coli
IC50 [2]: 0.464 nM

C-terminal ICK domain of Hi1a (Hi1a-C), produced in E. coli
IC50 [2]: > 30000 nM

B1: recombinant engineered peptide #1 (EP 1), two copies of PcTx1 joined by a linker (designed binder)
peptide: SEDCIPKWKGCVNRHGDCCEGLECWKRRRSFEVCVPKTEDCIPKWKGCVNRHGDCCEGLECWKRRRSFEVCVPKTPKT
% Residual Current [1]: 0% | IC50 (inhibition of acid-evoked current, TEVC, Xenopus oocytes) [1]: 64 nM | fold increase in IC50 against wild-type Hi1a [1]: 200 fold

B2: recombinant engineered peptide #2 (EP 2), as EP 1 with a Glu to Gly mutation in the linker (designed binder)
peptide: SEDCIPKWKGCVNRHGDCCEGLECWKRRRSFEVCVPKTGDCIPKWKGCVNRHGDCCEGLECWKRRRSFEVCVPKTPKT
% Residual Current [1]: 0% | IC50 (inhibition of acid-evoked current, TEVC, Xenopus oocytes) [1]: 215 nM | fold increase in IC50 against wild-type Hi1a [1]: 500 fold

B3: recombinant Hi1a (π-hexatoxin-Hi1a) expressed in E. coli (peptide)
peptide: SNECIRKWLSCVDRKNDCCEGLECYKRRHSFEVCVPIPGFCLVKWKQCDGRERDCCAGLECWKRSGNKSSVCAPIT
fold higher potency at ASIC1a over this subtype (from 1 µM Hi1a, TEVC) [3]: > 2000 fold | selectivity for ASIC1a over this subtype (from 30 nM Hi1a, TEVC) [3]: ≥ 50 fold | fold higher potency at ASIC1a over this subtype (from 1 µM Hi1a, TEVC) [4]: > 2000 fold | selectivity for ASIC1a over this subtype (from 30 nM Hi1a, TEVC) [4]: ≥ 50 fold | % Residual Current [5]: 20% | IC50 (inhibition of acid-evoked current, TEVC, Xenopus oocytes) [5]: 0.59 nM | fold higher potency at ASIC1a over this subtype (from 1 µM Hi1a, TEVC) [6]: > 2000 fold | selectivity for ASIC1a over this subtype (from 30 nM Hi1a, TEVC) [6]: > 50 fold
